# Assay results published in doi:10.1101/2020.06.16.154534 (bioRxiv, 2020).
# Read-outs that look alike come from different tables or passages of the source.
# B1: apo-bacterioferritin from E. coli (core-free, heme B bound) (natural protein)
# chain: not shown
# Legend:
# [1] = target: the molecule itself; assay: SAXS
# [2] = target: the molecule itself; assay: SAXS; remark: listed apart in the source
protein,measurement,setting,value
B1,stoichiometry N,[1],2
same,stoichiometry N,[2],24
